Measurements from the supplement of paper PMC9112550, “Optimization of the antimicrobial peptide Bac7 by deep mutational scanning” (BMC Biology, 2022).

Tested on: Escherichia coli TOP10
Experiment: shrunken log2 fold change of peptide-encoding DNA abundance (4.5 h post-induction vs induction); higher = less antimicrobial activity (less host growth inhibition)
Conditions: time post-induction: 4.5 h; library: site-saturation at positions 5, 18, 19, 20
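Also: peptides expressed intracellularly from a pBAD plasmid library in pooled LB shake-flask culture, induced with 0.3% L-arabinose, DNA abundance read by NGS, three biological replicates, DESeq2 with apeglm shrinkage.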

Sequence	shrunken log2 fold change
RRIRSRPPRLPRPRPRPCQYPRP	0.0376
RRIRCRPPRLPRPRPRPFAEPRP	-0.0347
RRIRHRPPRLPRPRPRPQSDPRP	0.0136
RRIRKRPPRLPRPRPRPCSVPRP	0.0108
RRIRCRPPRLPRPRPRPGPLPRP	0.213
RRIRQRPPRLPRPRPRPWAKPRP	-0.000896
RRIRWRPPRLPRPRPRPAYWPRP	0.473
RRIRHRPPRLPRPRPRPCPQPRP	-0.195
RRIRSRPPRLPRPRPRPQAYPRP	0.0251
RRIRSRPPRLPRPRPRPTCLPRP	-0.117
RRIRQRPPRLPRPRPRPRFYPRP	-0.206
RRIRGRPPRLPRPRPRPFGIPRP	-0.0144
RRIRERPPRLPRPRPRPPLNPRP	-0.192
RRIRARPPRLPRPRPRPSFDPRP	0.103
RRIRHRPPRLPRPRPRPYTHPRP	-1.46
RRIRRRPPRLPRPRPRPTESPRP	0.121
RRIRYRPPRLPRPRPRPMKEPRP	-0.00804
RRIRNRPPRLPRPRPRPKFTPRP	-0.0624
RRIRRRPPRLPRPRPRPEREPRP	0.297
RRIRTRPPRLPRPRPRPFLRPRP	-0.0935
RRIRPRPPRLPRPRPRPWHSPRP	-0.134
RRIRERPPRLPRPRPRPWGAPRP	0.165
RRIRGRPPRLPRPRPRPPIIPRP	-0.0886
RRIRVRPPRLPRPRPRPHWEPRP	-0.0118
RRIRARPPRLPRPRPRPAVHPRP	0.175

Sequence	shrunken log2 fold change
RRIRMRPPRLPRPRPRPYRIPRP	-0.0176
RRIRWRPPRLPRPRPRPVRMPRP	-0.0133
RRIRSRPPRLPRPRPRPQNKPRP	-0.561
RRIRVRPPRLPRPRPRPTHLPRP	0.37
RRIRARPPRLPRPRPRPYQNPRP	-0.559
RRIRNRPPRLPRPRPRPNTHPRP	-0.584
RRIRWRPPRLPRPRPRPIADPRP	0.0247
RRIRARPPRLPRPRPRPHMEPRP	0.157
RRIRQRPPRLPRPRPRPPAIPRP	-0.0632
RRIRIRPPRLPRPRPRPWMVPRP	-0.619
RRIRLRPPRLPRPRPRPSAMPRP	-0.347
RRIRERPPRLPRPRPRPEDNPRP	0.0813
RRIRIRPPRLPRPRPRPIRLPRP	-0.41
RRIRYRPPRLPRPRPRPIYKPRP	-0.396
RRIRRRPPRLPRPRPRPKFAPRP	0.283
RRIRSRPPRLPRPRPRPGAQPRP	0.68
RRIRWRPPRLPRPRPRPKVTPRP	-0.165
RRIRMRPPRLPRPRPRPWYGPRP	-0.0162
RRIRNRPPRLPRPRPRPYYCPRP	-0.0454
RRIRTRPPRLPRPRPRPWYAPRP	-0.521
RRIRARPPRLPRPRPRPANMPRP	-0.0999
RRIRDRPPRLPRPRPRPKYTPRP	-0.214
RRIRWRPPRLPRPRPRPPDAPRP	0.5
RRIRYRPPRLPRPRPRPNLTPRP	-0.372
RRIRLRPPRLPRPRPRPLMIPRP	-0.288

Sequence	shrunken log2 fold change
RRIRDRPPRLPRPRPRPSHEPRP	-0.0403
RRIRERPPRLPRPRPRPPQQPRP	0.00573
RRIRMRPPRLPRPRPRPKLQPRP	0.273
RRIRIRPPRLPRPRPRPCKGPRP	0.00355
RRIRLRPPRLPRPRPRPGSGPRP	0.337
RRIRMRPPRLPRPRPRPDVPPRP	0.323
RRIRGRPPRLPRPRPRPCEYPRP	0.0669
RRIRWRPPRLPRPRPRPKCYPRP	-0.0376
RRIRHRPPRLPRPRPRPTPMPRP	0.0946
RRIRHRPPRLPRPRPRPVHMPRP	-0.0408
RRIRMRPPRLPRPRPRPCWCPRP	-7.44e-05
RRIRERPPRLPRPRPRPYDPPRP	-0.0709
RRIRCRPPRLPRPRPRPPAFPRP	0.504
RRIRMRPPRLPRPRPRPPEAPRP	0.779
RRIRTRPPRLPRPRPRPYLCPRP	-0.189
RRIRLRPPRLPRPRPRPYKYPRP	0.0639
RRIRYRPPRLPRPRPRPAARPRP	0.0304
RRIRTRPPRLPRPRPRPMRYPRP	-0.0953
RRIRFRPPRLPRPRPRPFRVPRP	-0.119
RRIRVRPPRLPRPRPRPMRKPRP	4.33
RRIRERPPRLPRPRPRPYKCPRP	-0.122
RRIRERPPRLPRPRPRPWTVPRP	0.0377
RRIRHRPPRLPRPRPRPLSPPRP	-0.0711
RRIRPRPPRLPRPRPRPSTYPRP	-0.415
RRIRMRPPRLPRPRPRPNLPPRP	-0.0556

Sequence	shrunken log2 fold change
RRIRWRPPRLPRPRPRPKNIPRP	-0.159
RRIRFRPPRLPRPRPRPSMYPRP	-0.432
RRIRHRPPRLPRPRPRPFFLPRP	-0.238
RRIRMRPPRLPRPRPRPTPQPRP	1.31
RRIRIRPPRLPRPRPRPTSCPRP	-0.0992
RRIRDRPPRLPRPRPRPVGRPRP	0.301
RRIRARPPRLPRPRPRPRTTPRP	0.755
RRIRWRPPRLPRPRPRPWHWPRP	-0.101
RRIRLRPPRLPRPRPRPNDWPRP	-0.261
RRIRGRPPRLPRPRPRPNCPPRP	-0.161
RRIRYRPPRLPRPRPRPMCSPRP	-0.116
RRIRTRPPRLPRPRPRPSDLPRP	-0.0743
RRIRSRPPRLPRPRPRPHICPRP	-0.127
RRIRSRPPRLPRPRPRPCRLPRP	-0.271
RRIRIRPPRLPRPRPRPRAFPRP	-0.0671
RRIRLRPPRLPRPRPRPCCDPRP	-0.139
RRIRTRPPRLPRPRPRPQPNPRP	0.0183
RRIRERPPRLPRPRPRPNVIPRP	-1.38
RRIRWRPPRLPRPRPRPKFQPRP	-0.00693
RRIRWRPPRLPRPRPRPKQDPRP	0.00878
RRIRFRPPRLPRPRPRPYEMPRP	-0.412
RRIRIRPPRLPRPRPRPEAVPRP	0.0843
RRIRFRPPRLPRPRPRPWMWPRP	-0.0253
RRIRIRPPRLPRPRPRPNHEPRP	0.042
RRIRFRPPRLPRPRPRPESEPRP	0.0687

Sequence	shrunken log2 fold change
RRIRDRPPRLPRPRPRPVIDPRP	0.35
RRIRHRPPRLPRPRPRPHHTPRP	-0.71
RRIRNRPPRLPRPRPRPDLEPRP	0.124
RRIRNRPPRLPRPRPRPYYMPRP	-0.416
RRIRVRPPRLPRPRPRPLQKPRP	0.0697
RRIRGRPPRLPRPRPRPRCSPRP	0.415
RRIRSRPPRLPRPRPRPRFCPRP	0.23
RRIRPRPPRLPRPRPRPHIRPRP	-0.0938
RRIRYRPPRLPRPRPRPTCRPRP	-0.157
RRIRWRPPRLPRPRPRPMGGPRP	0.116
RRIRVRPPRLPRPRPRPSKAPRP	0.0587
RRIRLRPPRLPRPRPRPPPTPRP	1.48
RRIRWRPPRLPRPRPRPLWMPRP	0.151
RRIRNRPPRLPRPRPRPAHVPRP	-0.0508
RRIRSRPPRLPRPRPRPNKAPRP	0.0174
RRIRVRPPRLPRPRPRPWHSPRP	-0.435
RRIRPRPPRLPRPRPRPNWHPRP	-0.0472
RRIRSRPPRLPRPRPRPQPFPRP	-0.0168
RRIRRRPPRLPRPRPRPLMDPRP	0.235
RRIRIRPPRLPRPRPRPWYDPRP	-0.0891
RRIRTRPPRLPRPRPRPYMNPRP	-0.895
RRIRIRPPRLPRPRPRPQFMPRP	-0.831
RRIRSRPPRLPRPRPRPEWCPRP	0.219
RRIRFRPPRLPRPRPRPILLPRP	-0.554
RRIRWRPPRLPRPRPRPHDKPRP	0.0422
